Measured values as given in patent US20030148956A1 (PROCTER AND GAMBLE, published 2003).
Ends that are not written are not given here.

T1: CRF2R
T1 sequence (Q13324 whole entry, species assumed, looked up): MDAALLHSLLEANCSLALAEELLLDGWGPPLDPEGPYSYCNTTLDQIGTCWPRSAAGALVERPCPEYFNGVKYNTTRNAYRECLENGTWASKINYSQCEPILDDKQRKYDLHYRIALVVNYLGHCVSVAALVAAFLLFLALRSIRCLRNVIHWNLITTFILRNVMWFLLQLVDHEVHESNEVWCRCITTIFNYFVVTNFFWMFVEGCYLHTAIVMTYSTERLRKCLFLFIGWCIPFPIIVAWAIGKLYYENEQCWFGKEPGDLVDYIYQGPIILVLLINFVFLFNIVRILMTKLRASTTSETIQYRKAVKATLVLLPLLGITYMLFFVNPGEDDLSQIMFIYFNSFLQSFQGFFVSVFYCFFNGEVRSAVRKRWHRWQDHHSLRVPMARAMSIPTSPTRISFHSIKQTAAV


How the values were obtained:
CRF1R = assay: cell-based or functional assay
CRF2R = target: T1, CRF2R; assay: cell-based or functional assay

Row | CRF1R EC50 (CRF1R) | CRF1R Emax (CRF1R) | CRF2R EC50 (CRF2R) | CRF2R Emax (CRF2R) | Binder
1 | 100 nM | 4.6% | 100 nM | 8.1% | SQEPPISLDLTIGLLREVLEMTKADQLAQQAHSNRKLLDIA-NH2 [SEQ ID NO 86]
2 | 100 nM | 9% | 100 nM | 12% | IVLSLDVPGPLLQILLEQTKQEAAREQATTNARILARV-NH2 [SEQ ID NO 5]
3 | 60.9 nM | 81% | 4.3 nM | 73% | ZGPPISIDLPLYLLRKMIEIEKQEKEKQQAANNRLLLDT (C-terminal amide) [SEQ ID NO 81]
4 | > 1000 nM | 42% | 19 nM | 94% | ZGPPISIDLPTILLRKMIEIEKQEKEKQQAANNRLLLDTI (C-terminal amide) [SEQ ID NO 50]
5 | > 1000 nM | 13% | > 100 nM | 10% | ZGPPISIDLPTPLLRKMIEIEKQEKEKQQAANNRLLLDTI (C-terminal amide) [SEQ ID NO 52]
6 | 73.2 nM | 34% | 67.3 nM | 100% | ZGPPISIDLPGYLLRKMIEIEKQEKEKQQAANNRLLLDTI (C-terminal amide) [SEQ ID NO 63]
7 | > 100 nM | 55% | 6.53 nM | 88% | ZGPPISIDLPLQLLRKMIEIEKQEKEKQQAANNRLLLDTI (C-terminal amide) [SEQ ID NO 80]
8 | > 100 nM | 8% | > 100 nM | 44% | ZGPPISIDLPTRLLRKMIEIEKQEKEKQQAANNRLLLDTI (C-terminal amide) [SEQ ID NO 60]
9 | > 100 nM | 7% | 91.5 nM | 76% | ZGPPISIDLPIELLRKMIEIEKQEKEKQQAANNRLLLDTI (C-terminal amide) [SEQ ID NO 76]
10 | > 100 nM | 8% | 18.2 nM | 82% | ZGPPISIDLPTYLLRKMIEIEKQEKEKQQAANNRLLLDTI (C-terminal amide) [SEQ ID NO 70]
11 | > 100 nM | 4% | > 100 nM | 55% | ZGPPISIDLPTQLLRKMIEIEKQEKEKQQAANNRLLLDTI (C-terminal amide) [SEQ ID NO 72]
12 | > 100 nM | 12% | > 100 nM | 46% | ZGPPISIDLPPYLLRKMIEIEKQEKEKQQAANNRLLLDTI (C-terminal amide) [SEQ ID NO 57]
13 | > 100 nM | 6% | 94.8 nM | 56% | ZGPPISIDLPTELLRKMIEIEKQEKEKQQAANNRLLLDTI (C-terminal amide) [SEQ ID NO 71]
14 | 1000 nM | 10% | 100 nM | 11% | ZGPPISIDLPDYLLRKMIEIEKQEKEKQQAANNRLLLDTI (C-terminal amide) [SEQ ID NO 54]
15 | 68.9 nM | 57% | 63.3 nM | 94% | ZGPPISIDLPNYLLRKMIEIEKQEKEKQQAANNRLLLDTI (C-terminal amide) [SEQ ID NO 64]
16 | 11.6 nM | 92% | 7.95 nM | 95% | ZGPPISIDLPWYLLRKMIEIEKQEKEKQQAANNRLLLDTI (C-terminal amide) [SEQ ID NO 55]
17 | > 100 nM | 33% | 38.5 nM | 74% | ZGPPISIDLPFGLLRKMIEIEKQEKEKQQAANNRLLLDTI (C-terminal amide) [SEQ ID NO 68]
18 | > 100 nM | 7% | 55 nM | 100% | ZGPPISIDLPTHLLRKMIEIEKQEKEKQQAANNRLLLDTI (C-terminal amide) [SEQ ID NO 74]
19 | > 100 nM | 5% | > 100 nM | 52% | ZGPPISIDLPIGLLRKMIEIEKQEKEKQQAANNRLLLDTI (C-terminal amide) [SEQ ID NO 75]

Row | CRF1R EC50 (CRF1R) | CRF1R Emax (CRF1R) | CRF2R EC50 (CRF2R) | CRF2R Emax (CRF2R) | Binder
20 | > 100 nM | 12% | > 100 nM | 89% | ZGPPISIDLPTALLRKMIEIEKQEKEKQQAANNRLLLDTI (C-terminal amide) [SEQ ID NO 61]
21 | > 1000 nM | 19% | > 100 nM | 95% | ZGPPISIDLPISLLRKMIEIEKQEKEKQQAANNRLLLDTI (C-terminal amide) [SEQ ID NO 53]
22 | 44.2 nM | 96% | 10 nM | 50% | ZGPPISIDLPFELLRKMIEIEKQEKEKQQAANNRLLLDTI (C-terminal amide) [SEQ ID NO 67]
23 | > 100 nM | 8% | 22.3 nM | 100% | ZGPPISIDLPIYLLRKMIEIEKQEKEKQQAANNRLLLDTI (C-terminal amide) [SEQ ID NO 79]
24 | 96.2 nM | 85% | 10.9 nM | 90% | ZGPPISIDLPLELLRKMIEIEKQEKEKQQAANNRLLLDTI (C-terminal amide) [SEQ ID NO 82]
25 | > 100 nM | 14% | 50.4 nM | 87% | ZGPPISIDLPSYLLRKMIEIEKQEKEKQQAANNRLLLDTI (C-terminal amide) [SEQ ID NO 56]
26 | > 1000 nM | 48% | 20.6 nM | 100% | ZGPPISIDLPTLLLRKMIEIEKQEKEKQQAANNRLLLDTI (C-terminal amide) [SEQ ID NO 51]
27 | 34.5 nM | 88% | 5.85 nM | 81% | ZGPPISIDLPFHLLRKMIEIEKQEKEKQQAANNRLLLDTI (C-terminal amide) [SEQ ID NO 69]
28 | > 100 nM | 11% | > 100 nM | 11% | ZGPPISIDLPTGLLRKMIEIEKQEKEKQQAANNRLLLDTI (C-terminal amide) [SEQ ID NO 73]
29 | 52.2 nM | 96% | 1.91 nM | 81% | ZGPPISIDLPLHLLRKMIEIEKQEKEKQQAANNRLLLDTI (C-terminal amide) [SEQ ID NO 83]
30 | > 100 nM | 16% | 67.9 nM | 64% | ZGPPISIDLPRYLLRKMIEIEKQEKEKQQAANNRLLLDTI (C-terminal amide) [SEQ ID NO 65]
31 | 82.2 nM | 99% | 1.77 nM | 100% | ZGPPISIDLPFQLLRKMIEIEKQEKEKQQAANNRLLLDTI (C-terminal amide) [SEQ ID NO 84]
32 | > 100 nM | 5% | 43.4 nM | 100% | ZGPPISIDLPIHLLRKMIEIEKQEKEKQQAANNRLLLDTI (C-terminal amide) [SEQ ID NO 77]
33 | > 100 nM | 10% | > 100 nM | 27% | ZGPPISIDLPTNLLRKMIEIEKQEKEKQQAANNRLLLDTI (C-terminal amide) [SEQ ID NO 59]
34 | 11 nM | 84% | 2.34 nM | 100% | ZGPPISIDLPFYLLRKMIEIEKQEKEKQQAANNRLLLDTI (C-terminal amide) [SEQ ID NO 85]
35 | > 100 nM | 16% | 71.6 nM | 100% | ZGPPISIDLPKYLLRKMIEIEKQEKEKQQAANNRLLLDTI (C-terminal amide) [SEQ ID NO 58]
36 | > 100 nM | 6% | 24.6 nM | 78% | ZGPPISIDLPIQLLRKMIEIEKQEKEKQQAANNRLLLDTI (C-terminal amide) [SEQ ID NO 78]
37 | 783 nM | 64% | 31.5 nM | 10% | IVLSLDVPIGLLQELLEMARAEQLAQQAHSNRKLMEII-NH2 [SEQ ID NO 1]
